Source: patent publication US6902918B1, “Oxygenase enzymes and screening method” (California Institute of Technology, priority 1998, dated 2005)
Positions count from the first letter of the chain named.

How the values were obtained:
[1] = Whole cell naphthalene hydroxylation assay, P450cam in E. coli with added HRP, 96-well plate; assay type: cell-based; conditions: TB and 1.3 mM ALA, 100 μL volume
[2] = Fluorescence image analysis of colonies on agar plates with naphthalene and hydrogen peroxide; assay type: cell-based, E. coli BL21(DE3); conditions: naphthalene as substrate
[3] = assay type: cell-based, E. coli; conditions: for Relative rate towards naphthalene (generation of fluorescence per time): whole cells, 96-well plate
[4] = 96-well plate whole cell assay of P450cam variants, generation of fluorescence per time, 3-phenylpropionate; assay type: cell-based, E. coli; conditions: for Relative rate towards 3-phenylpropionate (generation of fluorescence per time): whole cells, 96-well plate
Experimental: (§1) For the microtitre plate assay, the cells (grown in 4 ml TB/amp (100 ug/ml) media) were centrifuged for 10 min at 4° C. After the supernatant solution was removed, the harvested cells were carefully resuspended in 1 ml buffer solution (dibasic phosphate, 100 mM, pH 9.0). Then, 20 μl aliquots were placed into a Nunc fluorescence microplate. The total 180 μl reaction mixture was made up of 100 μl dibasic sodium phosphate buffer (100 mM, pH9.0), 20 μl ethanol, 10 μl substrate stock (4.5 mM coumarin in 10% ethanol, or 2 mM 3-phenylpropionate in 10% ethanol, 2 mM naphthalene in pure ethanol), and 10 μl hydrogen peroxide stock solution (50 mM H2O2 stock). The other reaction conditions are those described in EXAMPLE 2. The fluorescence was measured as a function of time, and the relative rates presented in Table 2 are the slopes of that measurement (RFU/min).

[5] = 96-well plate whole cell assay of P450cam variants, generation of fluorescence per time, coumarin; assay type: cell-based, E. coli; conditions: whole cells
Experimental: as §1

[6] = Colorimetric coupling of naphthol by laccase or HRP in cell solutions; assay type: biochemical; conditions: 1-naphthol 100 uM
Experimental: Laccase was purchased from Sigma Chemicals as a crude acetone powder from the […] Rhus vernificera. […] Type II HRP (RZ approximately 2.0) and all other chemicals were purchased from Sigma. Fluorescence readings were taken with a Perkin-Elmer HTS 7000 plate reading fluorimeter. Excitation and emission wavelengths were 360 nm and 465 nm, respectively.
Experiments were performed at 25° C. in the wells of opaque, white Nunc 96-well plates with a total liquid of 200 uL. Except where stated otherwise, each well contained 10% pure ethanol to improve the solubility of substrates and products. Where HRP was used for comparison, approximately 2.3 units of HRP and 5 mM H2O2 were in each well. […] Tris buffer was not used because it increases background fluorescence. Except where stated, results are given from conditions at pH 9.0, which were either the best results or barely distinguishable from the other conditions.
In order to evaluate laccase in a useful whole cell assay to identify the formation of hydroxylated aromatic compounds by oxidative enzymes (such as cytochrome P450cam and toluene dioxygenase), laccase was added to solutions containing cells, naphthalene, and naphthol. P450cam was expressed in E. coli strain BL21(DE3) using plasmid pCWori+. BL21(DE3) cells with and without the expressed protein were grown in Terrific Broth and after 8 hours were induced with 1 mM IPTG for 24 hours. […]

[7] = HRP peroxidase activity test with ABTS and H2O2, expression in E. coli; assay type: cell-based, E. coli BL21(DE3)
Experimental: The PCR products were ligated back into the pET-22b(+) vector which was transformed into the BL21(DE3) cells by electroporation. Cell growth and expression was carried out in either 96-well or 384-well microplates in LB medium at 30° C. Peroxidase activity tests were performed with H2O2 and ABTS (32).
IPTG was omitted in all HRP expression experiments, unless otherwise specified. Peroxidase activity tests for HRP were performed with a classical peroxidase assay, ABTS and hydrogen peroxide (26). Fifteen μl of cell suspension was mixed with 140 μl of ABTS/H2O2 (2.9 mM ABTS, 0.5 mM H2O2, pH 4.5) in microplates, and the activity was determined with a SpectraMax plate reader (Molecular Devices, Sunnyvale, Calif.) at 25° C. A unit of HRP is defined as the amount of enzyme that oxidizes 1 μmole of ABTS per min at the assay conditions.

[8] = ABTS assay; reported by Sigma; cited from earlier work
[9] = Stability of mutant HRP at 4° C.

B1: WT: native cytochrome P450cam monooxygenase of P. putida, SEQ. ID. NO. 2 (protein)
chain: TTETIQSNANLAPLPPHVPEHLVFDFDMYNPSNLSAGVQEAWAVLQESNVPDLVWTRCNGGHWIATRGQLIREAYEDYRHFSSECPFIPREAGEAYDFIPTSMDPPEQRQFRALANQVVGMPVVDKLENRIQELACSLIESLRPQGQCNFTEDYAEPFPIRIFMLLAGLPEEDIPHLKYLTDQMTRPDGSMTFAEAKEALYDYLIPIIEQRRQKPGTDAISIVANGQVNGRPITSDEAKRMCGLLLVGGLDTVVNFLSFSMEFLAKSPEHRQELIERPERIPAACEELLRRFSLVADGRILTSDYEFHGVQLKKGDQILLPQMLSGLDERENACPMHVDFSRQKVSHTTFGHGSHLCLGQHLARREIIVTLKEWLTRIPDFSIAPGAQIQHKSGIVSGVQALPLVWDPATTKAV
modifications: P. Putida
Question: With B1 as the molecule, how does the “total activity (whole cell naphthalene hydroxylation)” value [1] read?
Answer: The value was 430 RFU/min.

Question: What about the “colony fluorescence in digital scan” value [2] of the same molecule?
Answer: The value was about 320 fluorescence units.

B2: M7-4H (protein)
chain: B1 chain with E331K
modifications: Mutant M7-4H
Question: With B2 as the molecule, how does the “Relative rate towards naphthalene (generation of fluorescence per time)” value [3] read?
Answer: Its value is 84.1 RFU/min.

Question: And the “Relative rate towards 3-phenylpropionate (generation of fluorescence per time)” value [4]?
Answer: The value was 42.8 RFU/min.

Question: What about the “Relative rate towards coumarin (generation of fluorescence per time)” value [5] of the same molecule?
Answer: Its value is 11.5 RFU/min.

B3: M7-6H (protein)
chain: B1 chain with R280L, E331K
modifications: Mutant M7-6H
Question: For B3, which “increased activity over the wild type, naphthalene hydroxylation” value ([3]; from Table 2 data) is on record?
Answer: The value was 9.4 fold.

Question: What about the “Relative rate towards naphthalene (generation of fluorescence per time)” value [3] of the same molecule?
Answer: The value was 86.7 RFU/min.

Question: What about the “increase in activity on 3-phenylpropionate compared to wild-type” value ([4]; another series of experiments) of the same molecule?
Answer: The value was 3.2 fold.

Question: And the “Relative rate towards 3-phenylpropionate (generation of fluorescence per time)” value [4]?
Answer: The value was 43.6 RFU/min.

Question: And the “Relative rate towards coumarin (generation of fluorescence per time)” value [5]?
Answer: Its value is 14.1 RFU/min.

B4: M7-8H (protein)
chain: B1 chain with C242F, E331K
modifications: Mutant M7-8H
Question: Which “Relative rate towards naphthalene (generation of fluorescence per time)” value [3] does the source give for B4 here?
Answer: The value was 53.1 RFU/min.

Question: And the “Relative rate towards 3-phenylpropionate (generation of fluorescence per time)” value [4]?
Answer: Its value is 35.4 RFU/min.

Question: What about the “Relative rate towards coumarin (generation of fluorescence per time)” value [5] of the same molecule?
Answer: The value was 12.8 RFU/min.

B5: HRP: horseradish peroxidase; purchased from Sigma (type II) or expressed from synthetic gene in pETpelBHRP (protein, listed as Escherichia coli)
chain: MQLTPTFYDNSCPNVSNIVRDTIVNELRSDPRIAASILRLHFHDCFVNGCDASILLDNTTSFRTEKDAFGNANSARGFPVIDRMKAAVESACPRTVSCADLLTIAAQQSVTLAGGPSWRVPLGRRDSLQAFLDLANANLPAPFFTLPQLKDSFRNVGLNRSSDLVALSGGHTFGKNQCRFIMDRLYNFSNTGLPDPTLNTTYLQTLRGLCPLNGNLSALVDFDLRTPTIFDNKYYVNLEEQKGLIQSDQELFSSPDATDTIPLVRSFANSTQTFFNAFVEAMDRMGNITPLTGTQGQIRLNCRVVNSNS
Question: Which “time for color change from light yellow to dark brown” value [6] does the source give for B5 here?
Answer: The value was “approximately 1 minute”.

Question: And the “peroxidase activity in cells induced with IPTG” value ([7]; 1 mM IPTG)?
Answer: Its value is “no peroxidase activity above background”.

Question: What about the “activity against ABTS in cells not induced with IPTG” value ([7]; no IPTG) of the same molecule?
Answer: Its value is “weak but measurable activity”.

Question: What about the “total activity of 1 mg of highly purified HRP” value [8] of the same molecule?
Answer: The value was 1,000 units.

B6: HRP1A6: horseradish peroxidase mutant, Asn255 changed to Asp, SEQ. ID. NO. 17 (protein, listed as Escherichia coli)
chain: B5 chain
Question: What does the source list for B6?
Answer: total activity ([7]; ABTS assay): greater than 100 units/L; peroxidase activity on addition of IPTG ([7]; as little as 5 μM of IPTG added): markedly decreased activity; concentration of active HRP ([7]; estimated from ABTS activity): ~100 µg/L; higher peroxidase activity than the parent clone ([7]; first generation, no IPTG added): 10-14 fold; share of HRP activity found in the LB culture medium ([7]; judged by the ABTS activity): greater than 95%; stability [9]: stable for up to a week
